The target in this assay is AbTFM (A. baumannii tautomerase family member) (Acinetobacter baumannii). Nature of the assay: crystal structure; sitting-drop crystals at 296 K from 0.2 M ammonium nitrate, PEG 3350; protein in 20 mM HEPES-NaOH pH 6.8, 150 mM NaCl; space group H3, one subunit in the asymmetric unit, trimer by the crystallographic threefold axis.

In the case of “AbTFM (A. baumannii tautomerase family member) (natural protein)”, the stoichiometry N is 3.

A word on the stoichiometry N: it is a count of units in the complex or per binding partner.

(Values after paper PMC9813972.)
